Experimental data taken from EP2103936A1 (Institut Pasteur, dated 2009).
Where “and” joins values, the source holds several entries; their conditions need not be identical. Equal values may be shown once.

Molecular target: maltose binding protein MalE from E. coli (Escherichia coli, UniProt P0AEX9 27-396 = MBP)

B1: DarpOff7(wt) (designed binder)
chain: MRGSHHHHHHGSDLGRKLLEAARAGQDDEVRILMANGADVNAADNTGTTPLHLAAYSGHLEIVEVLLKHGADVDASDVFGYTPLHLAAYWGHLEIVEVLLKNGADVNAMDSDGMTPLHLAAKWGYLEIVEVLLKHGADVNAQDKFGKTAFDISIDNGNEDLAEILQKLN
Kd: 11 nM and 5.6 nM
